Test results taken from PMC7617869, “Molecular glues that inhibit deubiquitylase activity and inflammatory signaling” (Nature Structural & Molecular Biology, 2025).
“And” between values parts separate entries of the source, which are not always exact repeats. Equal entries are not always repeated.

Experiments:
Format in all cases: biochemical
BRISC = target: T1, BRISC (Homo sapiens, UniProt P46736+Q15018+Q9NXR7); experiment: BRISC DUB activity assay (IQF K63-linked diubiquitin); conditions: BRISC WT
T1 construct: made in house; host or cells: Spodoptera frugiperda (Sf9) insect cells, MultiBac
Protocol: (§1) IQF assays were performed in DUB reaction buffer containing 50 mM HEPES–NaOH pH 7.0, 100 mM NaCl, 0.1 mg ml^−1 BSA, 1 mM DTT and 0.03% v/v Brij-35. […] The final concentration of BRISC WT, all BRISC mutants, HsBRISCΔLoop, MmBRISC and DrBRISCΔNΔC was 1 nM. Other enzymes were tested at the following concentrations: 5 nM ARISC (FL), 10 nM CfBRISCΔNΔC, 250 nM AMSH* (ref. [43]), 500 nM USP2 and 1 μM trypsin (Sigma, 9002-07-7). For Michaelis–Menten experiments, 1 nM BRISC with 0–1 μM IQF K63-linked diubiquitin substrate was used. Michaelis–Menten analyses and Lineweaver–Burk plots were calculated using GraphPad Prism (version 9.0).
(§2) To assess enzymatic activity, BRISC complexes were diluted to concentrations between 1 nM and 50 nM. […] Then, 20-μl enzyme reactions were carried out in 384-well black flat-bottom low-flange plates (Corning, 35373). DUB activity was measured using IQF K63-linked diubiquitin (LifeSensors, DU6303) at 50 nM. Cleaved diubiquitin was monitored by measuring fluorescence intensity (excitation, 544 nm; emission, 575 nm; dichroic mirror, 560 nm). Fluorescence intensity was measured every minute for 30 min at 30 °C. Fluorescence intensity units were plotted against time to generate a linear reaction progress curve, where the initial velocity (V0) corresponds to the gradient of the curve (typically achieved within 15 min). IC50 values were calculated using the GraphPad Prism (version 9.0) built-in dose–response equation for inhibitor concentration versus response (variable slope).

BRISC BRCC36 W130A = BRISC BRCC36 W130A (Homo sapiens, UniProt P46736+Q15018+Q9NXR7, W130A); experiment: BRISC mutant IQF assay: BRCC36 W130A
Protocol: as §1, §2

BRISC BRCC45 D248R = BRISC BRCC45 D248R (Homo sapiens, UniProt P46736+Q15018+Q9NXR7, D248R); experiment: BRISC mutant IQF assay: BRCC45 D248R
Protocol: as §1, §2

BRISC BRCC45 R137A = BRISC BRCC45 R137A (Homo sapiens, UniProt P46736+Q15018+Q9NXR7, R137A); experiment: BRISC mutant IQF assay: BRCC45 R137A
Protocol: as §1, §2

BRISC BRCC45 C245A = BRISC BRCC45 C245A (Homo sapiens, UniProt P46736+Q15018+Q9NXR7, C245A); experiment: BRISC mutant IQF assay: BRCC45 C245A
Protocol: as §1, §2

B1: SHMT2: serine hydroxymethyltransferase 2, metabolic enzyme and endogenous inhibitor of BRISC DUB activity (protein)
chain: QLVRMAIRAQHSNAAQTQTGEANRGWTGQESLSDSDPEMWELLQREKDRQCRGLELIASENFCSRAALEALGSCLNNKYSEGYPGKRYYGGAEVVDEIELLCQRRALEAFDLDPAQWGVNVQPYSGSPANLAVYTALLQPHDRIMGLDLPDGGHLTHGYMSDVKRISATSIFFESMPYKLNPKTGLIDYNQLALTARLFRPRLIIAGTSAYARLIDYARMREVCDEVKAHLLADMAHISGLVAAKVIPSPFKHADIVTTTTHKTLRGTRSGLIFYRKGVKAVDPKTGREIPYTFEDRINFAVFPSLQGGPHNHAIAAVAVALKQACTPMFREYSLQVLKNARAMADALLERGYSLVSGGTDNHLVLVDLRPKGLDGARAERVLELVSITANKNTCPGDRSAITPGGLRLGAPALTSRQFREDDFRRVVDFIDEGVNIGLEVKSKTAKLQDFKSFLLKDSETSQRLANLRQRVEQFARAFPMPGFDEH
Normalised V0 (BRISC; SHMT2 0.00347222 nM): 0.9504 and 1.044 and 0.9816 | Normalised V0 (BRISC; SHMT2 0.0347222 nM): 0.8685 and 1.128 and 1.002 | Normalised V0 (BRISC; SHMT2 0.347222 nM): 0.5106 and 0.9767 and 0.8269 | Normalised V0 (BRISC; SHMT2 1.04167 nM): 0.4439 and 0.8387 and 0.81 | SHMT2 inhibition of BRISC mutant (BRISC BRCC36 W130A): reduced BRISC inhibition by SHMT2 | Normalised V0 (BRISC BRCC36 W130A; SHMT2 0.00347222 nM): 1.237 and 1.127 and 0.9914 | Normalised V0 (BRISC BRCC36 W130A; SHMT2 0.0347222 nM): 1.202 and 1.0039 and 1.016 | Normalised V0 (BRISC BRCC36 W130A; SHMT2 0.347222 nM): 1.306 and 1.037 and 1.029 | Normalised V0 (BRISC BRCC36 W130A; SHMT2 1.04167 nM): 1.133 and 0.9683 and 1.009 | Normalised V0 (BRISC BRCC36 W130A; SHMT2 3.125 nM): 1.059 and 0.8824 and 0.9607 | Normalised V0 (BRISC BRCC36 W130A; SHMT2 6.25 nM): 1.076 and 0.9844 and 0.926 | Normalised V0 (BRISC BRCC36 W130A; SHMT2 12.5 nM): 0.9633 and 0.8672 and 0.8727 | Normalised V0 (BRISC BRCC36 W130A; SHMT2 25 nM): 0.8129 and 0.833 and 0.8407 | Normalised V0 (BRISC BRCC36 W130A; SHMT2 50 nM): 0.7117 and 0.7254 and 0.8132 | Normalised V0 (BRISC BRCC36 W130A; SHMT2 100 nM): 0.5212 and 0.5553 and 0.3708 | Normalised V0 (BRISC BRCC36 W130A; SHMT2 200 nM): 0.4561 and 0.482 and 0.3879 | Normalised V0 (BRISC BRCC45 D248R; SHMT2 0.00347222 nM): 0.9357 and 1.056 and 1.018 | Normalised V0 (BRISC BRCC45 D248R; SHMT2 0.0347222 nM): 0.8867 and 1.018 and 0.9695 | Normalised V0 (BRISC BRCC45 D248R; SHMT2 0.347222 nM): 0.882 and 0.7691 and 0.9453 | Normalised V0 (BRISC BRCC45 D248R; SHMT2 1.04167 nM): 0.8534 and 1.006 and 0.8339 | Normalised V0 (BRISC BRCC45 D248R; SHMT2 3.125 nM): 0.5795 and 0.5378 and 0.6917 | Normalised V0 (BRISC BRCC45 D248R; SHMT2 6.25 nM): 0.5339 and 0.4364 and 0.5979 | Normalised V0 (BRISC BRCC45 D248R; SHMT2 12.5 nM): 0.3281 and 0.3163 and 0.4228 | Normalised V0 (BRISC BRCC45 D248R; SHMT2 25 nM): 0.3612 and 0.2677 and 0.38 | Normalised V0 (BRISC BRCC45 D248R; SHMT2 200 nM): 0.05731 and 0.07178 and 0.09996 | Normalised V0 (BRISC BRCC45 R137A; SHMT2 0.00347222 nM): 1.014 and 1.027 and 1.065 | Normalised V0 (BRISC BRCC45 R137A; SHMT2 0.0347222 nM): 1.097 and 0.9804 and 1.087 | Normalised V0 (BRISC BRCC45 R137A; SHMT2 0.347222 nM): 0.9721 and 1.019 and 0.9944 | Normalised V0 (BRISC BRCC45 R137A; SHMT2 1.04167 nM): 0.7112 and 0.6836 and 0.8504 | Normalised V0 (BRISC BRCC45 R137A; SHMT2 3.125 nM): 0.4073 and 0.4138 and 0.6039 | Normalised V0 (BRISC BRCC45 R137A; SHMT2 6.25 nM): 0.3218 and 0.2523 and 0.3959 | Normalised V0 (BRISC BRCC45 R137A; SHMT2 12.5 nM): 0.1807 and 0.195 and 0.2065 | Normalised V0 (BRISC BRCC45 R137A; SHMT2 25 nM): 0.1093 and 0.1844 and 0.1637 | Normalised V0 (BRISC BRCC45 R137A; SHMT2 50 nM): 0.06765 and 0.12 and 0.1128 | Normalised V0 (BRISC BRCC45 R137A; SHMT2 100 nM): 0.03288 and 0.04915 and 0.05253 | SHMT2 inhibition of BRISC BRCC45 mutants (BRISC BRCC45 R137A; b47 speaks of all BRCC45 mutants): without affecting SHMT2 inhibition | Normalised V0 (BRISC BRCC45 C245A; SHMT2 0.00347222 nM): 0.9588 and 1.144 and 1.038 | Normalised V0 (BRISC BRCC45 C245A; SHMT2 0.0347222 nM): 0.8809 and 1.071 and 0.9852 | Normalised V0 (BRISC BRCC45 C245A; SHMT2 0.347222 nM): 0.7622 and 1.011 and 1.053
